Measurements from US20200397860A1, “SLIT AND BONE GROWTH MODULATION” (Cornell University, priority 2018, published 2020).
“Also recorded” adds a separate entry of the source.

How the values were obtained:
[1] = tested on: murine ovariectomy (OVX) model of postmenopausal osteoporosis; test: Ovariectomy (OVX) induced bone loss, therapeutic model after osteopenia onset; format: in vivo, mouse
[2] = tested on: bone marrow endothelial cells; test: Immunoblot of YAP, AKT and ERK phosphorylation after SLIT3 treatment; format: cell-based, mouse
Protocol: Western blot analysis was performed according to a previously described standard protocol. (Greenblatt et al. 2016) Primary antibodies were specific for SLIT3 (1:500; R&D Systems, AF3629), ROBO1 (1:500; Abeam, ab7279), ROBO2 (1:1000; Abcam, ab75014), YAP (1:1,000; Cell Signaling, 4912), p-YAP (1:1,000; Cell signaling, 4911), AKT (1:1,000; Cell Signaling, 4691), p-AKT (1:1,000; Cell Signaling, 4060), ERK (1:1,000; Cell Signaling, 9102), p-ERK (1:1,000; Cell Signaling, 9101) and beta-actin (1:5,000, sc-47778, Santa Cruz) or Hsp90 (1:1000; sc-13119, Santa Cruz). Secondary anti-mouse/rabbit HRP-conjugated antibodies were subsequently applied.

[3] = tested on: open femoral midshaft fracture; test: Open femoral midshaft fracture model, systemic IV SLIT3; format: in vivo, mouse
Protocol: (§1) Micro-CT (μCT) analysis was conducted on a Scanco Medical μCT 35 system at the Citigroup Biomedical Imaging Core using the previously described parameters. (Shim et al. 2013). μCT analysis was performed by an investigator blinded to the genotypes of the animals under analysis.
For histological analysis, hindlimbs were dissected from the mice or human callus, fixed in 10% neutral buffered formalin for 24-48 hours, and decalcified by daily changes of 15% tetrasodium EDTA for 2 weeks. Tissues were dehydrated by passage through an ethanol series, cleared twice in xylene, embedded in paraffin, and sectioned at 7 μm thickness. Decalcified sections were stained with hematoxylin and eosin (H&E). We incubated the slides with primary antibody to mouse EMCN (sc-65495, Santa Cruz, 1:200) and human Slit3 (ab198726, Abcam 1:50) at 37° C. for 2 h and subsequently used a horseradish peroxidase-streptavidin detection system (Dako) to detect the immunoreactivity. The number and volume of positively stained vessels was measured in four random visual fields of callus in 3 sequential sections per mouse in each group.
All surgical procedures were performed under isoflurane (1-4%) anesthesia via nosecone. Surgical sites were sterilized using a betadine/iodide/isopropanol prep after hair removal by a clipper with a #40 blade and depilatory cream (Nair). After surgery, the visceral lining or muscle was sutured with absorbable Ethicon vicryl sutures (VWR, Cat #95057-014) prior to closing the skin with wound clips that were then removed 2 weeks post-operatively. Animals received intraperitoneal Buprenex (0.5 mg/kg) and oral Meloxicam (2.0 mg/kg) as analgesia prior to surgery and once every 24 hours post-surgery for 3 days. All surgical procedures are approved by the IACUC of Weill Cornell Medical College (Protocol #2012-0005).
Bone fracture was done following previously described protocols with modifications (Bradaschia-Correa et al. 2017). In brief, after anesthesia and surgical site sterilization, an incision above the right anterolateral femur was made. The femur and patella were then exposed, and a 27-gauge syringe needle was inserted parallel with the long axis of the femur through the patellar groove into the marrow cavity. The needle was then removed, and a single cut was made in the middle of the femoral diaphysis using a dremel saw with a diamond thin cutting wheel (VWR, Cat #100230-724). A blunt 25-gauge needle was then inserted into the marrow space through the hole made in the patella to stabilize the fracture. The needle was then trimmed to avoid it from projecting into the patella-femoral joint space. Muscle was then placed over the osteotomy site and stitched with absorbable sutures prior to closing the skin with wound clips.
Alternatively, the gelatin sponge was manually soaked with SLITS (300 ug/ml in PBS) or vehicle for 1 hour on ice and immediately placed to the surgical fracture area. All animals were euthanized by CO2 at time points indicated.
All bones were tested to failure using four-point bending on a precision electromagnetic-based load frame (EnduraTEC ELF 3200, Bose Corporation, Minnetonka, MC). Femurs were placed with the posterior surface on the lower supports, spaced 9.9 mm apart. The upper supports were spaced 3.3 ram. Load was applied at a rate of 0.1 mm/s until failure occurred. The failure load (N) and bending stiffness […] within the elastic range were calculated from the force-displacement curves and the four-point dimensions.

[4] = tested on: murine ovariectomy (OVX) model of postmenopausal osteoporosis; test: Ovariectomy (OVX) induced bone loss, prophylactic model; format: in vivo, mouse
Protocol: as §1
For histomorphometry, mice were injected with calcein (25 mg/kg, Sigma), and undecalcified sections of the lumbar vertebrae were stained using von Kossa and TRAP as described by Fukuda et al. (2013). Static and dynamic histomorphometric analysis was performed with using the Osteomeasure Analysis System (Osteometrics) following standard nomenclature as described (Dempster et al. 2013). Bone volume/total volume (BV/TV), bone formation rate/bone surface (BFR/BS, μm^3 […] yr^−1), mineral apposition rate (MM, um Day^−1), osteoblast surface/bone surface (Ob.S/BS, %) and osteoclast number/bone perimeter (No. OC/Bpm) were analyzed.
For the prophylactic model, 12-week-old female mice (JAX) were anesthetized and bilaterally ovariectomized or sham operated. Ovariectomized mice were given twice weekly intravenous injections of 1 mg per kg body weight of SLITS or vehicle or daily subcutaneous (sc) injections of 80 ug/kg PTH (1-34) for 6 weeks starting 2 weeks after ovariectomy. […] All mice were then randomly assigned to one of four groups: Sham, OVX+vehicle, OVX+SLITS and OVX+PTH. Three days after the last injection, all of the mice were euthanized and subjected to bone analysis as described earlier.

non-skeletal vasculature = details: mouse, in vivo, iv
[5] = treatment initiated eight weeks after OVX
[6] = IV twice weekly, 21 days after fracture
[7] = biomechanical testing, 21 days after fracture
[8] = treatment initiated two weeks after OVX

B1: SLIT3: SLIT3 recombinant protein (R&D); secreted ligand of ROBO receptors (protein, UniProt O75094 34-1523, looked up)
Slit homolog 3 protein: CPTKCTCSAASVDCHGLGLRAVPRGIPRNAERLDLDRNNITRITKMDFAGLKNLRVLHLEDNQVSVIERGAFQDLKQLERLRLNKNKLQVLPELLFQSTPKLTRLDLSENQIQGIPRKAFRGITDVKNLQLDNNHISCIEDGAFRALRDLEILTLNNNNISRILVTSFNHMPKIRTLRLHSNHLYCDCHLAWLSDWLRQRRTVGQFTLCMAPVHLRGFNVADVQKKEYVCPAPHSEPPSCNANSISCPSPCTCSNNIVDCRGKGLMEIPANLPEGIVEIRLEQNSIKAIPAGAFTQYKKLKRIDISKNQISDIAPDAFQGLKSLTSLVLYGNKITEIVKGLFDGLVSLQLLLLNANKINCLRVNTFQDLQNLNLLSLYDNKLQTISKGLFAPLQSIQTLHLAQNPFVCDCHLKWLADYLQDNPIETSGARCSSPRRLANKRISQIKSKKFRCSGSEDYRSRFSSECFMDLVCPEKCRCEGTIVDCSNQKLVRIPSHLPEYVTDLRLNDNEVSVLEATGIFKKLPNLRKINLSNNKIKEVREGAFDGAASVQELMLTGNQLETVHGRVFRGLSGLKTLMLRSNLIGCVSNDTFAGLSSVRLLSLYDNRITTITPGAFTTLVSLSTINLLSNPFNCNCHLAWLGKWLRKRRIVSGNPRCQKPFFLKEIPIQDVAIQDFTCDGNEESSCQLSPRCPEQCTCMETVVRCSNKGLRALPRGMPKDVTELYLEGNHLTAVPRELSALRHLTLIDLSNNSISMLTNYTFSNMSHLSTLILSYNRLRCIPVHAFNGLRSLRVLTLHGNDISSVPEGSFNDLTSLSHLALGTNPLHCDCSLRWLSEWVKAGYKEPGIARCSSPEPMADRLLLTTPTHRFQCKGPVDINIVAKCNACLSSPCKNNGTCTQDPVELYRCACPYSYKGKDCTVPINTCIQNPCQHGGTCHLSDSHKDGFSCSCPLGFEGQRCEINPDDCEDNDCENNATCVDGINNYVCICPPNYTGELCDEVIDHCVPELNLCQHEAKCIPLDKGFSCECVPGYSGKLCETDNDDCVAHKCRHGAQCVDTINGYTCTCPQGFSGPFCEHPPPMVLLQTSPCDQYECQNGAQCIVVQQEPTCRCPPGFAGPRCEKLITVNFVGKDSYVELASAKVRPQANISLQVATDKDNGILLYKGDNDPLALELYQGHVRLVYDSLSSPPTTVYSVETVNDGQFHSVELVTLNQTLNLVVDKGTPKSLGKLQKQPAVGINSPLYLGGIPTSTGLSALRQGTDRPLGGFHGCIHEVRINNELQDFKALPPQSLGVSPGCKSCTVCKHGLCRSVEKDSVVCECRPGWTGPLCDQEARDPCLGHRCHHGKCVATGTSYMCKCAEGYGGDLCDNKNDSANACSAFKCHHGQCHISDQGEPYCLCQPGFSGEHCQQENPCLGQVVREVIRRQKGYASCATASKVPIMECRGGCGPQCCQPTRSKRRKYVFQCTDGSSFVEEVERHLECGCLACS
[1]; IV twice weekly initiated eight weeks after OVX
  bone loss after onset of OVX-induced osteopenia: significantly reversed bone loss; also recorded: therapeutic effects
[1]; [5]
  cortical thickness: increased
  trabecular BV/TV: increased
[1]; treatment initiated eight weeks after OVX, femur
  CD31hiEMCNhi endothelial cells: significantly increased
[2]; EPOCs transduced with Robo1 shRNA
  phosphorylation of YAP in response to ligand after Robo1 knockdown: impaired their response
[2]; mouse EPOCs after serum starvation
  signaling pathways downstream of SLIT3 (YAP, AKT, ERK phosphorylation): induces activation of Hippo and ERK MAPK pathway signaling
[3]; 5-week-old male mice, IV twice weekly, 21 days
  bone fracture healing (μCT and histological analysis): enhancement of bone fracture healing; also recorded: enhances bone-fracture healing
[3]; [6]
  bone volume in the callus area relative to controls: ~2 fold
  vascularization of fracture area including CD31hiEMCNhi endothelium: increased
[3]; [7]
  maximum load sustained by the fracture callus: significantly enhanced
  stiffness of the fracture callus: significantly enhanced
[4]; IV twice weekly initiated two weeks after OVX
  OVX-induced bone loss (micro-CT): significantly countered OVX-induced bone loss; also recorded: comparable to the effects of PTH treatment; also recorded: preventive effects
[4]; L3 vertebrae
  endosteal CD31hiEMCNhi endothelium after OVX: reversed the attenuation
  endosteal bone formation: rescued
[4]; treatment for six weeks in vivo
  amounts of CD31hiEMCNhi vasculature in vivo: increase amounts
[4]; [8]
  cortical thickness: increased
  trabecular BV/TV: increased
non-skeletal vasculature
  brain ultrastructure: no changes
